Source: paper PMC10700433 (Cancer Immunology, Immunotherapy : CII, 2023)

Key:
ATOR-1017 (evunzekibart) [1] = molecular target: T1, ATOR-1017 (evunzekibart) (human); test: BLI; Octet RED96; antibodies captured on FABG2 biosensor tips, recombinant Fcγ receptors in solution at suitable concentration ranges; association and dissociation at physiological pH; conditions: both partners purified
T1 construct: as the VH of Wm14, which is in PDB 8OZ3 (amino acids 2-118 modelled); human IgG4 heavy chain constant region, S228P stabilised; as the VL of Wm14, which is in PDB 8OZ3 (amino acids 2-110 modelled); light chain constant region; IgG4 (S228P)

ATOR-1017 (evunzekibart) [2] = molecular target: T1, ATOR-1017 (evunzekibart); test: BLI; Octet RED96; antibodies captured on FABG2 biosensor tips, recombinant FcRn in solution; association studied at physiological pH, dissociation at pH6; conditions: both partners purified
[3] = molecular target: T2, human 4-1BB expressed on CHO-K1 cells (human, UniProt Q07011); test: flow cytometry on cells; CHO-K1 cells stably expressing human or cynomolgus 4-1BB incubated with serially diluted ATOR-1017; detected with goat anti-hIg Fc-PE; MFI; conditions: one partner purified
T2 construct: human 4-1BB (CD137, TNFRSF9) from a gene in pcDNA3.1 (GenScript); also called CHO-hu4-1BB; hu4-1BB-CHO; source: CHO-K1, stably transfected (pcDNA3.1), on cells
T2 sequence (Q07011 24-255): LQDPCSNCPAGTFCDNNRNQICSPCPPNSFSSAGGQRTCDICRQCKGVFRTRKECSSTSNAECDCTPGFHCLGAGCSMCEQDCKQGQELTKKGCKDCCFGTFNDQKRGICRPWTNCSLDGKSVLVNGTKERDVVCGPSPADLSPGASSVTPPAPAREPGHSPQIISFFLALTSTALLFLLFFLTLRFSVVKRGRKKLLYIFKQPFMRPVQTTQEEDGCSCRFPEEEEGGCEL

[4] = molecular target: T3, cynomolgus 4-1BB expressed on CHO-K1 cells (Macaca fascicularis, UniProt A9YYE7); test: as above; conditions: one partner purified
T3 construct: cynomolgus 4-1BB (TNFRSF9) from a gene in pcDNA3.1 (GenScript); also called CHO-cy4-1BB; cy4-1BB-CHO; source: CHO-K1, stably transfected (pcDNA3.1), on cells

human CD137-His = molecular target: T4, human CD137-His (Homo sapiens, UniProt Q07011); test: BLI; Octet Red96 (ForteBio); who was immobilised not stated; conditions: both partners purified
T4 construct: human 4-1BB (CD137, TNFRSF9), recombinant His-tagged protein from Acro; also called human 4-1BB; TNFRSF9; source: bought: Acro
T4 sequence (Q07011 24-186): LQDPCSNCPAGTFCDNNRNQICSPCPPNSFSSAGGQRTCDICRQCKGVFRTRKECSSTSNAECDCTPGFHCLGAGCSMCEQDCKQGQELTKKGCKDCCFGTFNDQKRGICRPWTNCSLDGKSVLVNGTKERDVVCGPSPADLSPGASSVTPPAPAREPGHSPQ

[5] = molecular target: T5, cynomolgus 4-1BB/TNFRSF9-His (Macaca fascicularis, UniProt A9YYE7); test: as above; conditions: both partners purified
T5 construct: cynomolgus 4-1BB (TNFRSF9), recombinant His-tagged protein from Acro; source: bought: Acro

B1: mouse FcγRIII (receptor)
chain: ALPKAVVKLDPPWIQVLKEDMVTLMCEGTHNPGNSSTQWFHNGRSIRSQVQASYTFKATVNDSGEYRCQMEQTRLSDPVDLGVISDWLLLQTPQRVFLEGETITLRCHSWRNKLLNRISFFHNEKSVRYHHYKSNFSIPKANHSHSGDYYCKGSLGSTQHQSKPVTITVQDPATTSSISLVWYHT
modifications: soluble ectodomain assumed for BLI
Q: For B1, which Kd (ATOR-1017 (evunzekibart) [1]) is on record?
A: The Kd was 100 nM.

B2: mouse FcRn (receptor)
chain 1: SETRPPLMYHLTAVSNPSTGLPSFWATGWLGPQQYLTYNSLRQEADPCGAWMWENQVSWYWEKETTDLKSKEQLFLEALKTLEKILNGTYTLQGLLGCELASDNSSVPTAVFALNGEEFMKFNPRIGNWTGEWPETEIVANLWMKQPDAARKESEFLLNSCPERLLGHLERGRRNLEWKEPPSMRLKARPGNSGSSVLTCAAFSFYPPELKFRFLRNGLASGSGNCSTGPNGDGSFHAWSLLEVKRGDEHHYQCQVEHEGLAQPLTVDLDSSARSS
chain 2: IQKTPQIQVYSRHPPENGKPNILNCYVTQFHPPHIEIQMLKNGKKIPKVEMSDMSFSKDWSFYILAHTEFTPTETDTYACRVKHASMAEPKTVYWDRDM
modifications: soluble Fcgrt/B2m heterodimer assumed by convention; B2m not given
Q: With B2 as the binder, how does the Kd (ATOR-1017 (evunzekibart) [2]) read?
A: The Kd was 200 nM.

B3: mouse FcγRIIb (receptor)
chain: THDLPKAVVKLEPPWIQVLKEDTVTLTCEGTHNPGNSSTQWFHNGRSIRSQVQASYTFKATVNDSGEYRCQMEQTRLSDPVDLGVISDWLLLQTPQLVFLEGETITLRCHSWRNKLLNRISFFHNEKSVRYHHYSSNFSIPKANHSHSGDYYCKGSLGRTLHQSKPVTITVQGPKSSRSLP
modifications: soluble ectodomain assumed for BLI
Q: Which Kd (ATOR-1017 (evunzekibart) [1]) does the source give for B3 here?
A: The Kd was 300 nM.

B4: mouse FcγRIV (receptor)
chain: GLQKAVVNLDPKWVRVLEEDSVTLRCQGTFSPEDNSIKWFHNESLIPHQDANYVIQSARVKDSGMYRCQTALSTISDPVQLEVHMGWLLLQTTKWLFQEGDPIHLRCHSWQNRPVRKVTYLQNGKGKKYFHENSELLIPKATHNDSGSYFCRGLIGHNNKSSASFRISLGDPGSPSMFPPWHQ
modifications: soluble ectodomain assumed for BLI
Q: With B4 as the binder, how does the Kd (ATOR-1017 (evunzekibart) [1]) read?
A: Its Kd is 400 nM.

B5: ATOR-1017 (evunzekibart) (antibody, V domains shown)
VH: EVQLLESGGGLVQPGGSLRLSCAASGFNFGYSYMSWVRQAPGKGLEWVSSIGSTSSHTYYADSVKGRFTISRDNSKNTLYLQMNSLRAEDTAVYYCARVYSSPGIDYWGQGTLVTVSS
VL: DIQMTQSPSSLSASVGDRVTITCRASQSIGSTLNWYQQKPGKAPKLLIYGASSLQSGVPSRFSGSGSGTDFTLTISSLQPEDFATYYCQQYYTWVPFTFGQGTKLEIK
notes: the variable domains stand in the scFv of PDB 8OZ3 (heavy chain amino acids 2-118 modelled); human IgG4 constant part, S228P stabilized; the variable domains stand in the scFv of PDB 8OZ3 (light chain amino acids 2-110 modelled); light chain constant domain; IgG4 (S228P); variable domains from the human scFv library ALLIGATOR-GOLD, optimized
Q: Which EC50 [3] does the source give for B5 here?
A: Its EC50 is 0.5 nM.

Q: And the EC50 [4]?
A: The EC50 was 0.5 nM.

Q: And the Kd (human CD137-His)?
A: The Kd was 0.1 nM.

Q: And the Kd [5]?
A: The Kd was 0.2 nM.
